Experimental findings from patent US20160251695 are described below.

The target in data set [1] is T1, α-fructosyl-valyl-histidyl-leucyl-threonyl-proryl-glutamic acid.
T1 chain: VHLTPE

The target in data set [2] is T2, α-fructosyl-valyl-histidine.
T2 chain: VH

Chain of hemoglobin A1c, P68871 (P68871 2-147, chain 1 of 2): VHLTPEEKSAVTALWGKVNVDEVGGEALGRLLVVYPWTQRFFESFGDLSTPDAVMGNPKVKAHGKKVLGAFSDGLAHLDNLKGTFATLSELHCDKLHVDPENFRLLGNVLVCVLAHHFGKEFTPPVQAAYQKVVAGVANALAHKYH
Chain of hemoglobin A1c, P68871 (chain, as listed by the source, chain 2 of 2): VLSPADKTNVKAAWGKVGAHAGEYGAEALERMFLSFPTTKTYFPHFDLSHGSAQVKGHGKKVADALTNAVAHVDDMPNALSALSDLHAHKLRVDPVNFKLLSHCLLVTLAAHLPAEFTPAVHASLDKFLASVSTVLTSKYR

B1: CFP-T7 (protein)
chain: MTSNRADTRVIVVGGGGTIGSSTALHLVRSGYAPANITVLDTFEIPSAQSAGHDLNKIMGIRLRNKVDLQMSLEARQMWKEDELFQPFFHNTGRMDCEHTPEGIEDLKKQYQALHDAGAGLEKTHAWLDNEDEILSKMPLLQRDQIQGWKAIWSQDGGWLAAAKAINAIGQFLKERGVKFGFGGAGSFKQPLFDDEGTTCIGVETADGTKYYADKVVLAAGAWSPTLVDLEDQCCSKAWVYAHIQLTPEEAAEYKGVPVVYNGEFGFFFEPDEFGVIKVCDEFPGFSRFKEHQPYGAPSPKRISVPRSHAKHPTDTYPDASEVSIKKAIATFLPRFQDKELFNRALCWCTDTADAALLMCEHPKWKNFILATGDSGHSFKILPNVGKYVVELIEGRLPEEMAYQWRWRPGGDALKSRRAAPPKDLADMPGWKHDPKL
B1 gave a Specific activity (U/mg), 1 mM αF6P in data set [1] of 0 U/mg. The αF6P oxidation activity in data set [1] (scale: relative value) worked out at 0. The “ΔA at 751 nm (hydrogen peroxide generated upon oxidation of the HbA1c β-chain amino terminus) against HbA1c concentration; heat-treated sample” value with hemoglobin A1c, P68871 was “When Reagent C2 was used, however, no correlation was observed between the HbA1c concentration and ΔA”. In data set [2], the Specific activity (U/mg), 1 mM αFVH was 16.5 U/mg; the αFVH oxidation activity entry was “CFP-T7 exhibited αFV oxidation activity and αFVH oxidation activity”.

B2: CFP-T7-62D (protein)
chain: MTSNRADTRVIVVGGGGTIGSSTALHLVRSGYAPANITVLDTFEIPSAQSAGHDLNKIMGIDLRNKVDLQMSLEARQMWKEDELFQPFFHNTGRMDCEHTPEGIEDLKKQYQALHDAGAGLEKTHAWLDNEDEILSKMPLLQRDQIQGWKAIWSQDGGWLAAAKAINAIGQFLKERGVKFGFGGAGSFKQPLFDDEGTTCIGVETADGTKYYADKVVLAAGAWSPTLVDLEDQCCSKAWVYAHIQLTPEEAAEYKGVPVVYNGEFGFFFEPDEFGVIKVCDEFPGFSRFKEHQPYGAPSPKRISVPRSHAKHPTDTYPDASEVSIKKAIATFLPRFQDKELFNRALCWCTDTADAALLMCEHPKWKNFILATGDSGHSFKILPNVGKYVVELIEGRLPEEMAYQWRWRPGGDALKSRRAAPPKDLADMPGWKHDPKL
B2: in data set [1], the Specific activity (U/mg), 1 mM αF6P amounted to 0.018 U/mg and the “specific activity on αF6P, fold over PnFX (Comparative Example 3)” value is on record as 2 times (Amadoriase 26/Comparative Example 3). For the same protein, the Specific activity (U/mg), 1 mM αFVH in data set [2] was determined as 1.62 U/mg.

B3: EFP-T5-62D/63H/106K/110L/113K/355S (protein)
chain: MAHSRASTKVVVVGGGGTIGSSTALHLIRSGYTPSNITVLDVYKTPSLQSAGHDLNKIMGIDHRNGPDLQLSLESLDMWQNDELFKPFFHQVGMIDCSSSKEGIEKLRRLYQKLLDAGIGLEKTNVWLESEDEILAKAPNFTREQVKGWKGLFCTDGGWLAAAKAINAIGIFLQDKGVKFGFGDAGTFQQPLFAADGKTCIGLETTDGTKYFADKVVLAAGAWSPTLVDLEDQCVSKAWVFAHIQLTPKEADAYKNVPVVYDGEYGFFFEPDEYGVIKVCDEFPGFSRFKLHQPYGAASPKMISVPRSHAKHPTDTYPDASEVTIRKAIARFLPEFKDKELFNRTMCWCTDTADSNLLICEHPKWKNFILATGDSGHSFKLLPNIGKYVVELLEGSLSQEMAGAWRWRPGGDALRSRRGAPAKDLAEMPGWKHDAHL
The protein B3 yielded a Specific activity (U/mg), 1 mM αF6P in data set [1] of 1.12 U/mg. Further, the “ΔA at 751 nm against HbA1c concentration; acid-treated sample (Reagent D1, Reagent F2)” value with hemoglobin A1c, P68871 is “Amadoriase 28 from EFP-T5 exhibiting high specific activity on αF6P was also found to act directly on HbA1c (FIG. 6-3)”.

B4: CFP-DH2 (protein)
chain: MTSNRADTRVIVVGGGGTIGSSTALHLVRSGYAPANITVLDTFPIPSAQSAGHDLNKIMGIDHRNKVNLQMSLEARQMWKEDELFQPFFHNTGRMDCEHTPKGIEKLKKLYQKLHDAGAGLEKTHAWLDNEDAILSKMPLLQRDQIQGWKAIWSQDGGWLAAAKAINAIGQFLKERGVKFGFGGAGSFKQPLFDDEGTTCIGVETADGTKYYADKVVLAAGAWSPTLVDLEDQCCSKAWVYAHIQLTPEEAAKYKGCPVVYHGEFGFFFEPDEFGVIKVCDEFPGFSRFKEHQPYGAPSPKRISVPRSHAKHPTDTYPDASEVSIKKAIATFLPRFKDKPLFNRALCWCTDTADSTLLMCEHPKWKNFILATGDSGHSFKILPNVGKYVVELIEGRLPEEMAYQWRWRPGGDALKSRRAAPPKDLADMPGWKHD
In turn, B4 displayed a Specific activity (U/mg), 1 mM αF6P in data set [1] of 5.3 U/mg. The “ΔA at 751 nm against HbA1c concentration; cationic-surfactant-treated sample (Reagent G1 or G2)” value with hemoglobin A1c, P68871 is “In both cases where the sample was diluted with either Reagent G1 or Reagent G2, a good correlation was established between the HbA1c concentration and ΔA”.
